Assay: soluble on expression in E. coli; label from the status in PepcDB or PDB records

Sequence	soluble on expression in E. coli
MSLKQKILIVEDSLTIRRMLIQAIAQQTGLEIDAFDTLEGARHCRGEEYVVALVDLTLPDAPSGEAVKVLLERGLPVVILTADISEEKRAAWLEAGVLDYVMKDSRHSLQYAVSLVHRLYLNQRIEVLVVDDSRTSRHRTMAQLRKQLLQVHEASHAREALAQLEQNPAIRLVLVDYYMPEIDGISLVRMLRERYSKQQLAIIGISVSDKRGLSARYLKQGANDFLNQPFEPEELQCRVSHNLEALEQFNSIQESANRDYLTGLYNRRYWFNEGQKWFEEHQRQETPLALCVLDVDHFKQVNDHWGHAIGDQLLCHLTRLLTQFFPDAMIARFGGEEFALMVPHCTVPVLLKRLEGLRQQMRQQPLSRETPLFVRASFGVIKVGRGSMDEALSEADRLLYQAKNTGRDKIVSQDSSEGHHHHHH	soluble
MSLKQPTSTTVTRTDYLKHKVKVPKHPKRIVASYLEDDLVALGIKPVVQWSVKNGSGTQAYLKEQLKGVPLIDYSLPYEAVTKAKPDLILIGTSSAVANGKYAQYNKIAPTYVVKNGTTVTWRQTFLDVAKVVNRQAKAKKVLAKYDKQVQTTRQALKKSGQHKVAVLWVTNNTAYMVNDNSASGALLYQDLQLGEPSLVKQVSKSATADWSAVSLEKLAKLDADDIFLVNSQKSASLFKDPLWKNIKAVKNNHLYQYGDSSSWQYSGPIAYSQMIDMVKTDLLKEGHHHHHH	soluble
MSLKRAIIIGATSGIGKEVAQRLLSEGWQIGIAGRRQSALEEFRQIAPEQIKIQSLDVTQEYSAGKLDALIHQLGGMDLFLLSSGIGFQNMELNMEIELNTARTNVEGFTRMVDTAFSYFRNNGGGHLAVISSIAGTKGLGVAPAYSATKRFQNTYIDALEQLSHLQKLDIHFTDIRPGFVATDLLNDGKHYPMLMKTDQVGRDIVRALHRKQRVAIIDGRYRILVFFWRMIPRWIWKRLPVKTEGHHHHHH	soluble
MSLKRAVISGGAGGLGRALSDALQTRGWHVTLLDRDISAIEPSETQRVIQCDLTDPGQLAAACALAIGPQGVDLAVYNAGITQIGLFADSDEASHRRVFEINYFAAVNMARAMLGPVRQARGTHLAISSVAGFAPLYSRTSYAASKHALEGFFKSLRSEERAHGVAVQIAAPSFVATNLGNAQAQPDGIARPGSATDGMDYMTPEAAAATILRGLDRGRDMIPVGRVARLAWWINRLSPGLYQRLMESKIGREGHHHHHH	soluble
MSLKRKYEDHFKEQAVRLSFERGEISSVERELGINRTSLGKWRKKYEHLKLAPKDAVIIELNKKIKDSLLTLEILKNGSEFAAQGKVMTKRFIENNSSKYPIGKMCALLQISQRAYYKLKKKEISDKQSQIILLKEEVAAVYYEFKKTYGYRKIAKVLQCRGFKVGESQIRIYMNALGLRRRAKSRFTITTDSVHNHYIAQNILNREFTINQPAKAWVSDITYIAAEKGFLYLTIVLDLFDRKIIGWSLADSMSTKETTLPAWEMAVKNRNITQDLIFHSDRGVQYANKIFTETLDSYKFVRRSMSRKQNHNDNAVSESFFGNLKRELINGNKPLPREQMRVQVYQYIENWYNKKRRHSYLNYRTIEEFDKLHEGHHHHHH	not soluble
MSLKRVLLLGGAGFIGYHLGRHLVERSDCRVTLVDNFFRSKQDEELDTLLQSSAVDIVEGDLTERSTFDQLDDEYDHVYALAAVVGVGYTEDMPEEVWRINTAITLNTFEWLRESSVSRVLFASTSETYAGTVEEFGAEIPTPEDVPLSITDITQPRFTYAVTKMLGEAGIAHYAQAYDFEQVTVRFHNVYGPRMGFKHVIPQVVERFHEAEDPFTVYGYDQTRAFCHVDDAVRGVVQAMETPEAAGRTYHIGDDRHEITIETLIRYIGDLMDFHGEYEQGPSHAGSVSRRCPDVDRAREVFGYEPQVHWKEGVRETVEWYADYYRSGREVFEEGHHHHHH	soluble
MSLKSKVLVIDDEPDIRELLTLTLSRMGLICDAVSDFKQGIEHIKQNYYSLVLTDMRLPDGDGIEIVKFIQKYKPQLPVAVITAYGNVEGAVNTLKAGAFDYVSKPVDLKMLRELVKTALSMQNPSTESPDEGLLVGESLIMQQLRESIHKLARSQAPVFIQGDSGVGKELVAQLIHANGPRKDKPFIPVNCGAIPGELMESEFFGHKKGSFTGAISDKTGLFVAAHGGTLFLDEIAELPLAMQVKLLRAIQEKAIKPIGELYEIPVDVRILSASHKNLIEEINAGRFRQDLYYRINVIELRVPTLMERLSDIPCLTEAILKKLSKNQNRNLVKINPSCFEILSRYHFPGNVRELENILERAMAMCEGEVIEPSEGHHHHHH	soluble
MSLKSLEIFSGAGGLAKGLELAGFQHASFIELNKDACNSLRSNFNPKLVYQGDVADFDLSSQEGIEVIAGGPPCQPFSLGGKHLAHEDRRDMFPHAVRYVEYYRPKAFIFENVKGLLRKSFADYFEYILLRLTYPNLGILQNEDWKGHLTRLKEIEFNLYKGIKYKVSYQLLNAADYGVPQKRERVVIVGIRADLDIDWKFPKRTHSEDRLNWEKYVTGEYWEKHNEPKRFNKDIAEKLQKKYGIFEPEKKPWQTVRDTLSDIPHPLGNHKITGHEYRDGARIYPGHTGSGIDEPSKTIKAGGHGVPGGENMIRYDDGTVRYFTSYEAKLLQTFPEEFVISGAWGEAMRQIGNAVPVKLSEILGKHLMGVLSEKSSLHNEGHHHHHH	soluble
MSLKSLSYKRIYKSQEYLATLGTIEYRSLFGSYSLTVDDTVFAMVSDGELYLRACEQSAQYCVKYPPVWLTYKKCGRSVTLNYYRVDESLWRNQLKLVRLSKYSLDAALKEKSTRNTRERLKDLPNMSFHLEAILGEVGIKDVRALRILGAKMCWLRLRQQNSLVTEKILFMLEGAIIGIHEAALPVARRQELAEWADSLTPKQEFPAELEEGHHHHHH	soluble
MSLKTGRTNTIVVLVPNLINPFFMRIIGGIEQAAQERGFTVLLCDTQGESKRESDYASMVLTNRADGLIQLDHSFPFTEDDAKLAETIPMVSVCERIHSDKKYPVVALDNYAASRALAHHLVSYGHTKFAVIVGQVVSQIHKDRLYGLRSVLAEEDIEFDEDMIVGQSYSIENGIEGMRQLLEKPNRPSAVICFNDDIAIGAMHEIHRQGLRVPEDISVVGFDNVKVAAFMNPPLTTIDQPAYEMGRRGMEILSDVINGVPLTRSSEMLPFQLLERESSGEGHHHHHH	not soluble
MSLKTKQEIVENWLPRYTQRQLIDFEPYILLTNFSHYLHVFAEHYGVPIVGEHTSMPNASAEGVTLINFGMGSANAATIMDLLWAIHPKAVIFLGKCGGLKLENALGDYLLPIAAIRGEGTSNDYLPEEVPSLPSFSVLRAISSAIQNKGKDYWTGTVYTTNRRVWEYDEKFKDYLRSTHASGVDMETATLMTVGFANKIPMGALLLISDRPMFPEGVKTEESDQLVTDNFAEEHLMLGIDALEIIRENKSSIKHIRFNWEGHHHHHH	soluble
MSLKTLTRFLIIPMLSVAFFSCSESHFLKDVAYRNQVTQDFEMKKQQLPNGELFAVFNEKLTIPEQEALMFLYAYMPTGDVTDYTGDYYLENVRLSDQARREMPWGKEIPDDVFRHFVLPIRVNNENLDDSRRVFYNELKDRVKNLSLHDAVLEVNHWCHEKVIYTPSDARTSAPLASVKTAYGRCGEESTFTVAALRSVGIPARQVYTPRWAHTDDNHAWVEAWVDGKWYFFGACEPEPVLNLGWFNAPASRGMLMHTKVFGRYTGEGHHHHHH	not soluble
MSLKTTFLEFEQPIAELEAKIEELRFVQDDSAVDISEEISRLAAKSQQLTKDLYATLSPWQVAQIARHPQRPYTLDYVREIFTDFHELHGDRTFADDLSIVGGLARFNGQPCMVIGHQKGRDTKERALRNFGMSKPEGYRKAKRLMELADKFGLPIFTFVDTPGAFPGIEAEERGQSEAIGHNLFVMAGLKVPLIATIIGEGGSGGALAIAVGDSVIMLQFATYAVISPEGCASILWKTAEKAPEAAEALGLTAHRLKALGLIDKIVNEPLGGAHRDPKAMATMLKRALAESLRQFQGMKTSELQARRHERLMAYGKFKETGSNEGHHHHHH	not soluble
MSLKVVKFGGSSLASASQLEKVLNIVKSDSERRFVVVSAPGKRNAEDTKVTDALIKYYRDYVAGNDISKNQSWIIDRYAAMVSELGLKPAVLEKISKSIHALATLPIEENEFLYDTFLAAGENNNAKLIAAYFNQNGIDARYMHPREAGIVVTSEPGHARIIPSSYDKIEELTNTNEVLVIPGFFGVTKENQICTFSRGGSDITGSIIAAGVKADLYENFTDVDGIFAAHPGIIHQPHSIPELTYREMRELAYAGFSVLHDEALLPAYRGKIPLVIKNTNNPDHPGTRIVLKHSNDEFPVVGIAGDSGFVSINMSKYLMNREVGFGRKVLQILEELNIGWEHMPTGIDDLSIILRSRQLTPIKEEEILRQLVQKAKVDHAEIEHDLSIIMIVGEKMKSHIGVTATATRALSENKINIQMMSQGSSEVSIMFVVNKDQEKAAIKALYNAFFGESKEDEGHHHHHH	soluble
MSLKYGHVAWIQQILDGSYADAMNTLKNITVDDSKKGESLSECELHLNVAKLSSLLVEKDNLDINTLRKIQYNLDTIDAEKNISNKLKKGEVQICKRFKNGSIREVFNILVEELKSTTVVNLSDLVELYSMLDDEESLFIPLRLLSVDGNLLNFEVKKFLNALVWRRIVLLNASNEGDKLLQHIVKRVFDEELPKNNDFPLPSVDLLCDKSLLTPEYISETYGRFPIDQNAIREEIYEEISQVETLNSEGHHHHHH	not soluble
MSLLHKDYHHFALTALEERKLAQLPPYSFLSLFRAEANHTAQVEDFLRQVRETLRCNPWFDSECMVLGPTPAPLAKRAGKFRWQLLLQTPNRTLMQKILQSARPALQQLPLASKVRWSIDIDPQDLSEGHHHHHH	soluble
MSLLKKIERAQQLLKKEAAVFRCPTCHEPMHLEGVGLICQQRHQFDLSKKGTLYFLNHGVQTEYNKKMFTSRGKMIQSGMYAPVLNKIMHYLPQNKTVVDVGCGEGSFLAELSQAGLSGLKIGFDLSKEGIYLASNQPIDAFWCVADLTNLPFANEGLDTILNIFSPSHYQEFRRVLKADGTVIKIIPEENYLKELRAAFYPNDEKKQSYSNQKVVQRFAEELAVEVDERITYCFDIPEERRLDLLEMSPLEWQVSQEVKAELQQRPLEKITIDVRLLVGRKREGHHHHHH	soluble
MSLLKQKITQAPKTKISQTLRSWLPILQANIEDLKENLDKFAEDNPFLNVQDSIQTHDKGKNYFDSFYKHNVNSAFVDSKGLAKKSVYELLNEQILPPLFPTNKSQELAKKIIECLNEEGYFEYDEEFLKEYSLEEIERVRARFKFLDPVGVGAKDYKEAFLFALENMELDEDIDEFCRMLIMDFENIQNYTKEPLYKEALAVLKRFSTPPFLEYFEDSRIIVPDIFVYKENGEIKVKINDDYYPEISIQTDGLEHDFLSHYIKEAKNLVDALAMRKATLYKIGLMIVEYQYDFFMGKEIKPMTFKDLALDLERNASTISRAVANKYLSCERGLIPLRDFFAFALDEEGETSNVGVKEFVANLVKNEDRNKPLSDSKILELIKEEFKVDIGRRTITKYRKHLNIASSTDRKKLYELEGEGHHHHHH	soluble
MSLLLENCKLETGFSTVNQRIVATETASYDIRIENEVCTAVAPQLRPLENETVIDVNQQLVLPALREMHIHIDKTYFGGPWKACRPLTKGILTRIEEETWLLPEQLPTSLERACQVIEQYIQQGHYHIRSHCNVDPSIGTKHIEITKEAFSRYEQYITHEIVAFPQHGLLRSQVEPLMREALRMGATHVGGVDPALVDRHVDHSIAKIFELATTFNKKIDVHLHARDTLGLYEFNKFVDYTEQAKMFGKVTLSHALALGSLEEAAIRDIAQKFIETGIDLTSTVPIGMPTMPIPTLVEQGVKISVAHDSLTDHWSPFGSGNTIEKLNTAAQRFKISDEYRLNRLWGLASNFVTPLDPNGQQVWPNVGDSADFLLFNAESTAHVIARQQPIQQLILKGQLVEAVQKGEKEEGHHHHHH	soluble

— the DeepSol protein solubility set
